Three compounds from PMC12153350, “Evolution of carbapenemase activity in the class C β-lactamase ADC-1” (mBio, 2025) can be followed below.

In series [1] the test system is CC1(C)S[C@@H]2[C@H](NC(=O)[C@H](N)c3ccccc3)C(=O)N2[C@H]1C(=O)O. Put plainly: purified protein. The following applies: 50 mM sodium phosphate, pH 7.4, 22°C.
The test system of series [2] is C[C@@H](O)[C@H]1C(=O)N2C(C(=O)O)=C(S[C@@H]3CN[C@H](C(=O)Nc4cccc(C(=O)O)c4)C3)[C@H](C)[C@H]12. In words: purified protein. To be noted: 50 mM sodium phosphate, pH 7.4, 22°C.
The test system of series [3] is C[C@@H](O)[C@H]1C(=O)N2C(C(=O)O)=C(S[C@@H]3CN[C@H](CNS(N)(=O)=O)C3)[C@H](C)[C@H]12. Put plainly: purified protein. To be noted: 50 mM sodium phosphate, pH 7.4, 22°C.
Series [4] deals with C[C@@H](O)[C@H]1C(=O)N2C(C(=O)O)=C(S[C@@H]3CN[C@H](C(=O)N(C)C)C3)[C@H](C)[C@H]12. In words: purified protein. To be noted: 50 mM sodium phosphate, pH 7.4, 22°C.
Series [5] has as its system C[C@@H](O)[C@H]1C(=O)N2C(C(=O)O)=C(SCCN=CN)C[C@H]12. In words: purified protein. To be noted: 50 mM sodium phosphate, pH 7.4, 22°C.
The target of series [6] is T1, ADC-1 (Acinetobacter baumannii, UniProt Q9L4R5).
T1 construct: gene ampC; expressed and purified as in earlier work (gene in pET24a(+)); dimer in asymmetric unit
Put plainly: X-ray crystal structure of acyl-enzyme (soak). To be noted: covalent; acyl-enzyme at Ser64; two binding modes, monomers A and B.

For ADC-68 (Acinetobacter baumannii), the kcat in series [1] was determined as 3.2 ± 0.1 s⁻¹; in series [2], 0.011 ± 0.001 s⁻¹; in series [3], 0.0049 ± 0.0001 s⁻¹; in series [4], 0.028 ± 0.001 s⁻¹; in series [5] it was 0.0036 ± 0.0001 s⁻¹. In addition, the kcat/Km in series [1] was not below 650000 M⁻¹ s⁻¹; in series [2], 3300 ± 700 M⁻¹ s⁻¹; in series [3] it was 820 ± 60 M⁻¹ s⁻¹; in series [4] it was 550 ± 40 M⁻¹ s⁻¹; in series [5], 3600 ± 700 M⁻¹ s⁻¹. Besides, the Km in series [2] came out at 3.5 ± 0.7 µM; in series [3], 6.0 ± 0.4 µM; in series [4] it was 50 ± 4 µM; in series [5], 1.0 ± 0.2 µM.
With `C[C@@H](O)[C@H]1C(=O)N2C(C(=O)O)=C(S[C@@H]3CN[C@H](C(=O)Nc4cccc(C(=O)O)c4)C3)[C@H](C)[C@H]12` [ETP, ertapenem], the “X-ray crystal structure of acyl-enzyme (soak)” value in series [6] is on record as “The crystal structure of the ADC-1–ertapenem acyl–enzyme complex shows a clear dimorphism between the two monomers”.
As to ADC-1 (Acinetobacter baumannii), in series [2], the kcat is 0.00037 s⁻¹ and the kcat/Km was not below 370 M⁻¹ s⁻¹. Also, in series [4], the Km is given as 11 ± 1 µM, the kcat is 0.0034 s⁻¹ and the kcat/Km turned out to be 310 M⁻¹ s⁻¹. Besides, in series [5], the Km is listed as 1.3 ± 0.2 µM, the kcat amounted to 0.001 s⁻¹ and the kcat/Km came to 810 M⁻¹ s⁻¹.
